Measurements: paper PMC7312448

Target: MavC (wild type) (L. pneumophila)
Assay: SEC

MavC (wild type) (enzyme) was tested, and the stoichiometry N was 2.
